In patent US20250066745A1, “MUTANTS AND USE THEREOF” (BGI SHENZHEN, priority 2021, published 2025):
“And” between values parts separate entries of the source, which are not always exact repeats. Equal values may be shown once.

What was measured:
[1] = Activity assay of Gaussia luciferase at bacteria solution level (substrate CTZ); format: cell-based; details: OrigamiB (DE3) competent cells; 100 μL induced bacteria solution; CTZ final 100 μM; FIG. 4
Procedure: The expression plasmids pET28a-Gluc wt and pCold-no sp Glue obtained in Example 1 were individually transformed into BL21 (DE3) competent cells or OrigamiB (DE3) chemically competent cells (WEIDI BIO, EC1020S) and applied to plate medium. Then single colonies were picked from the plate for culture overnight at 37° C. The cultured clones were diluted at the ratio of 1:100 the next day, and transferred into 3 mL of fresh LB medium with ampicillin at 100 μg/mL, shaked at 37° C., 200 rpm until OD600≈0.5-0.6, followed by cooling on ice for 1 hour. IPTG was added at a final concentration of 1 mM as inducer for induction overnight at 16° C.
The induced bacteria solution, taken for 100 μL, was moved into a black 96-well plate, then added with 100 μL of a substrate CTZ (purchased from BIOLAB) at a final concentration of 100 μM. The luminescence intensity was read with a self-luminescence module of a microplate reader. […] Accordingly, the subsequent experiments were conducted with the Gaussia luciferase without the signal peptide.

[2] = Luminescence activity assay of purified Gaussia luciferase mutants on coelenterazine derivative ZS2; format: biochemical; details: for Measured luminescence intensity (ZS2): purified luciferase 1 μg/mL, 10 μL, 90 μL substrate ZS2 100 μM; for Ratio of luminescence intensities of advantageous mutant to wild-type Gaussia luciferase without signal peptide (ZS2): substrate ZS2 100 μM, vs no sp Gluc average
Procedure, shortened: (§1)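 Readout: luminescence intensity, as ratio to signal-peptide-free wild-type enzyme. Enzyme 1 μg/mL, substrate 100 μM stock, 10 μL + 90 μL; buffer 50 mM Tris-HCl pH 8.0, 100 mM NaCl, 0.1% Tween-20.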

[3] = Luminescence activity assay of purified Gaussia luciferase mutants on fluoro-coelenterazine; format: biochemical; details: for Measured luminescence intensity (f-CTZ): purified luciferase 1 μg/mL, 10 μL, 90 μL substrate fluoro-coelenterazine 100 μM; for Ratio of luminescence intensities of advantageous mutant to wild-type Gaussia luciferase without signal peptide (f-CTZ): substrate fluoro-coelenterazine 100 μM, vs no sp Gluc average
Procedure, shortened: as §1

[4] = Luminescence activity assay of purified Gaussia luciferase mutants on coelenterazine; format: biochemical; details: for Measured luminescence intensity (CTZ): purified luciferase 1 μg/mL, 10 μL, 90 μL substrate coelenterazine 100 μM; for Ratio of luminescence intensities of advantageous mutant to wild-type Gaussia luciferase without signal peptide (CTZ): substrate coelenterazine 100 μM, vs no sp Gluc average
Procedure, shortened: as §1

[5] = Substrate specificity test of combinatorial mutants: activity on coelenterazine derivative ZS26; format: biochemical
Procedure: In this Example, the protein concentration was determined with a BCA quantitative kit (Thermo Scientific™ Pierce™ BCA Protein Assay Kit) accurately. The purified luciferase obtained in Example 5 was diluted with diluent (50 mM Tris-HCl, pH 8.0, 100 mM NaCl, 0.1% (v/v) Tween-20) to 1 μg/mL. The diluted luciferase, taken for 10 μL, was moved into a black 96-well plate, then added with 90 μL of the substrates coelenterazine, fluoro-coelenterazine or coelenterazine derivative ZS2 (purchased from Biolab) which was diluted into 100 μM with the same diluent, and the luminescence intensity of the plate was read with a self-luminescence module of a microplate reader. The mutation site of the mutant, the measured luminescence intensity, the ratio of luminescence intensities of the advantageous mutants to the wild-type Gaussia luciferase without the signal peptide having the sequence shown in SEQ ID NO: 3 are shown in Table 15. The results of catalytic activity assay of the advantageous mutants relative to the wild-type Gaussia luciferase without the signal peptide having the sequence shown in SEQ ID NO: 3 on substrate coelenterazine are shown in FIG. 6. […] The results of catalytic activity assay of the advantageous mutants relative to the wild-type Gaussia luciferase without the signal peptide having the sequence shown in SEQ ID NO: 3 on substrate fluoro-coelenterazine are shown in FIG. 7.
The new mutant library constructed in Example 7 was screened and tested for substrate specificity. Expression and purification schemes were the same as that in Example 5, and the activity assay scheme was the same as that in Example 6. The respective catalytic activities of combinatorial mutants on coelenterazine, fluoro-coelenterazine or coelenterazine derivative ZS2, and coelenterazine derivative ZS26 (purchased from BIOLAB) were assayed, and comparisons among the substrate specificities of the combinatorial mutants were based on the ratios of catalytic activities on two corresponding substrates.

B1: no sp Gluc: wild type Gaussia luciferase without signal peptide, having a sequence shown in SEQ ID NO: 3 (protein)
chain: KPTENNEDFNIVAVASNFATTDLDADRGKLPGKKLPLEVLKEMEANARKAGCTRGCLICLSHIKCTPKMKKFIPGRCHTYEGDKESAQGGIGEAIVDIPEIPGFKDLEPMEQFIAQVDLCVDCTTGCLKGLANVQCSDLLKKWLPQRCATFASKIQGQVDKIKGAGGD
[1]
  luminescence value at bacteria solution level: highest luminescence value
[2]
  Measured luminescence intensity (ZS2): 18344 and 20707 and 22415
  Ratio of luminescence intensities of advantageous mutant to wild-type Gaussia luciferase without signal peptide (ZS2): 0.9 and 1.01 and 1.09
[2]; listed as no sp Gluc average
  Measured luminescence intensity (ZS2): 20488.67
  Ratio of luminescence intensities of advantageous mutant to wild-type Gaussia luciferase without signal peptide (ZS2): 1
[3]
  Measured luminescence intensity (f-CTZ): 5662 and 7198 and 6191
  Ratio of luminescence intensities of advantageous mutant to wild-type Gaussia luciferase without signal peptide (f-CTZ): 0.89 and 1.13 and 0.97
[3]; listed as no sp Gluc average
  Measured luminescence intensity (f-CTZ): 6350.333
  Ratio of luminescence intensities of advantageous mutant to wild-type Gaussia luciferase without signal peptide (f-CTZ): 1
[4]
  Measured luminescence intensity (CTZ): 253597 and 276603 and 266322
  Ratio of luminescence intensities of advantageous mutant to wild-type Gaussia luciferase without signal peptide (CTZ): 0.96 and 1.04 and 1
[4]; listed as no sp Gluc average
  Measured luminescence intensity (CTZ): 265507.3
  Ratio of luminescence intensities of advantageous mutant to wild-type Gaussia luciferase without signal peptide (CTZ): 1

B2: mutant 4-C12: Gaussia luciferase combinatorial mutant encoded by SEQ ID NO: 43 (protein)
chain: MKPTENNEDFNIVAVASNFATTDLDADRGKLPGKKLPLEVLKEMEANARKAGCTRGCLICLSKIKCTPKMKKFIPGRCHTYEGDKSTGQGGIGPAIVDIPEIPGFKDMEPMEQFIAQVDLCEDCTTGCLKGLANVQCSDLLKKWLPQRCATFASKIQGQVDKIKGAGGD
[5]; purified combinatorial mutant, substrate coelenterazine derivative ZS26
  measured value, ZS-26: 64057
[5]; substrate specificity, ZS2 relative to ZS26
  ratio of catalytic activities, ZS2/ZS26: 12.08
[5]; substrate specificity, coelenterazine relative to ZS26
  ratio of catalytic activities, CTZ/ZS26: 26.16
[5]; substrate specificity, fluoro-coelenterazine relative to ZS26
  ratio of catalytic activities, f-CTZ/ZS26: 2.62
[2]; purified combinatorial mutant, substrate coelenterazine derivative ZS2
  measured value, ZS-2: 773694
[2]; substrate specificity, FIG. 10, in words
  ratios of catalytic activities on ZS2 relative to ZS26: significantly improved
[3]; purified combinatorial mutant, substrate fluoro-coelenterazine (f-CTZ)
  measured value, f-CTZ: 167522
[4]; purified combinatorial mutant, substrate coelenterazine (CTZ)
  measured value, CTZ: 1675889
